The values below come from paper PMC13368180, “In silico design and validation of high-affinity RNA aptamers for SARS-CoV-2 comparable to neutralizing antibodies”.

To fix the notation:
B1: Ta (RBD-PB6-Ta) (structured_RNA)
RNA: GGCGACAUUUGUAAUUCCUGGACCGAUACUUCCGUCAGGACAGAGGUUGCCA
B2: TaG34U (structured_RNA)
RNA: GGCGACAUUUGUAAUUCCUGGACCGAUACUUCCUUCAGGACAGAGGUUGCCA
B3: TaG34C (structured_RNA)
RNA: GGCGACAUUUGUAAUUCCUGGACCGAUACUUCCCUCAGGACAGAGGUUGCCA
B4: TaG34A (structured_RNA)
RNA: GGCGACAUUUGUAAUUCCUGGACCGAUACUUCCAUCAGGACAGAGGUUGCCA
B5: TaC23U (structured_RNA)
RNA: GGCGACAUUUGUAAUUCCUGGAUCGAUACUUCCGUCAGGACAGAGGUUGCCA
B6: TaC23G (structured_RNA)
RNA: GGCGACAUUUGUAAUUCCUGGAGCGAUACUUCCGUCAGGACAGAGGUUGCCA
B7: TaC23A (structured_RNA)
RNA: GGCGACAUUUGUAAUUCCUGGAACGAUACUUCCGUCAGGACAGAGGUUGCCA

For one data set, the target named is SARS-CoV-2 spike RBD (SARS-CoV-2, UniProt P0DTC2 319-541). The data set can be described thus: EMSA. Particulars: protein: commercial. In general terms: Mobility shift assays separate free from complexed probe on a gel.
The Kd is the free concentration of one partner at which half of the binding sites on the other are occupied at equilibrium, for simple one-to-one binding. A higher Kd goes with lower affinity. In turn, B1 gave a Kd of 111 µM.

For the molecule B2, the Kd worked out at 54.7 ± 2 µM. Still for that read-out and setting: the value for B3 was 33.5 ± 1.6 µM. Still for that read-out and setting: then B4, with 55.5 ± 4.1 µM; and B5, with 48.7 ± 2 µM. Still for that read-out and setting: the value for B6 was 168 µM; that for B7 was 55.7 ± 9.8 µM.

Staying with this data set, now noted: protein: commercial; hairpin.
Turning to GGUCCUGGACCGAUACUUCCGUCAGGACCA (structured_RNA) [Tc (RBD-PB6-Tc)], the binding result is “no binding”.
